Here are results for two molecules from PMC7913109.

In this assay the target is Gluc2-VP3 BTV8 (pSPICA-N2-VP3 BTV8). Put plainly: split reporter (BiFC, NanoBiT).

Turning to “Gluc1-MAVS (pSPICA-N1 human MAVS) (from UniProt Q7Z434 1-540) (natural protein)”, the NLR (normalized luminescence ratio) was 17.4.

B1: Gluc1-IKKε (pSPICA-N1 human IKKε) (natural protein)
chain: MQSTANYLWHTDDLLGQGATASVYKARNKKSGELVAVKVFNTTSYLRPREVQVREFEVLRKLNHQNIVKLFAVEETGGSRQKVLVMEYCSSGSLLSVLESPENAFGLPEDEFLVVLRCVVAGMNHLRENGIVHRDIKPGNIMRLVGEEGQSIYKLTDFGAARELDDDEKFVSVYGTEEYLHPDMYERAVLRKPQQKAFGVTVDLWSIGVTLYHAATGSLPFIPFGGPRRNKEIMYRITTEKPAGAIAGAQRRENGPLEWSYTLPITCQLSLGLQSQLVPILANILEVEQAKCWGFDQFFAETSDILQRVVVHVFSLSQAVLHHIYIHAHNTIAIFQEAVHKQTSVAPRHQEYLFEGHLCVLEPSVSAQHIAHTTASSPLTLFSTAIPKGLAFRDPALDVPKFVPKVDLQADYNTAKGVLGAGYQALRLARALLDGQELMFRGLHWVMEVLQATCRRTLEVARTSLLYLSSSLGTERFSSVAGTPEIQELKAAAELRSRLRTLAEVLSRCSQNITETQESLSSLNRELVKSRDQVHEDRSIQQIQCCLDKMNFIYKQFKKSRMRPGLGYNEEQIHKLDKVNFSHLAKRLLQVFQEECVQKYQASLVTHGKRMRVVHETRNHLRLVGCSVAACNTEAQGVQESLSKLLEELSHQLLQDRAKGAQASPPPIAPYPSPTRKDLLLHMQELCEGMKLLASDLLDNNRIIERLNRVPAPPDV
For the molecule B1, the NLR (normalized luminescence ratio) worked out at 17.7.
